Here are results for one substance from US5830699.

The test deals with HA-SOK-1 (human).

Substance “catalytic subunit of protein phosphatase 2A (enzyme)” gave an SOK-1 kinase activity of 40%.
